Article PMC10171801

Biological target: MAGI2 PDZ0-GK (mouse) (UniProt Q9WVQ1)
Assay: ITC

Sequence of UniProt Q9WVQ1 (Q9WVQ1 9-238): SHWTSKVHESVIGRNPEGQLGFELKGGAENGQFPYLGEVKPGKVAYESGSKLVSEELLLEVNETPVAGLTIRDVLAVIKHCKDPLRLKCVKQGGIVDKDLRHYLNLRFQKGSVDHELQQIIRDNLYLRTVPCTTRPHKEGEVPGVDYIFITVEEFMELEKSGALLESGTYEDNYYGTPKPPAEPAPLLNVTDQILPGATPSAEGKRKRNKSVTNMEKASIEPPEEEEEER

Kd [nM]	Substance
70	pSAPAP1-GBR2(E-1P) (peptide)
70	pSAPAP1-GBR2(T+5F) (peptide)
